Measured values from US20170247448A1 (INTRINSIC LIFESCIENCES, published 2017).

Legend:
[1] = molecular target: T1, BAP070-01 (human-mouse chimeric MAb 583); experiment: C-ELISA: goat anti-human Fc coated plate, antibody captured, unlabelled hepcidin titrated against a labelled tracer not named for this figure; the EC50 row has 7 cells under 8 columns and is assigned in order to the 7 antibodies with human Fc
T1 construct: used as CHO cell supernatant; also called BAP070-1

BAP070-hum05 [2] = molecular target: T2, BAP070-hum05; experiment: as above
T2 construct: Expressed as soluble IgG1 in CHO cells, tested as supernatant; The entries stop inside FR4

BAP070-hum06 = molecular target: T3, BAP070-hum06; experiment: C-ELISA on goat anti-human Fc coat, hepcidin titrated against a labelled tracer not named for this figure
T3 construct: Expressed as soluble IgG1 in CHO cells, tested as supernatant; The entries stop inside FR4

[3] = molecular target: T1, BAP070-01 (human-mouse chimeric MAb 583); experiment: as above
BAP070-hum04 = molecular target: T4, BAP070-hum04; experiment: as above
T4 construct: Expressed as soluble IgG1 in CHO cells, tested as supernatant; The entries stop inside FR4

BAP070-hum03 = molecular target: T5, BAP070-hum03; experiment: as above
T5 construct: Expressed as soluble IgG1 in CHO cells, tested as supernatant; The entries stop inside FR4

BAP070-hum02 = molecular target: T6, BAP070-hum02; experiment: as above
T6 construct: Expressed as soluble IgG1 in CHO cells, tested as supernatant; The entries stop inside FR4

BAP070-hum05 [4] = molecular target: T2, BAP070-hum05; experiment: as above
BAP070-hum01 = molecular target: T7, BAP070-hum01; experiment: as above
T7 construct: Expressed as soluble IgG1 in CHO cells, tested as supernatant; The entries stop inside FR4 (...WGQG / ...FG); also called humanized hit 1
T7 sequence (VH, as listed by the source, chain 1 of 2): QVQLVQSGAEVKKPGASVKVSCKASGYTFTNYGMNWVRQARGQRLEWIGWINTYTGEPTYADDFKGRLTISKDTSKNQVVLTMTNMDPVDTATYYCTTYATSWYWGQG
T7 sequence (VL, as listed by the source, chain 2 of 2): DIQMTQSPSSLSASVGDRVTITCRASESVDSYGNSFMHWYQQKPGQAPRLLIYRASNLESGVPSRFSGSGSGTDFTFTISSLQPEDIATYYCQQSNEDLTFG

T2 sequence (VH, as listed by the source, chain 1 of 2): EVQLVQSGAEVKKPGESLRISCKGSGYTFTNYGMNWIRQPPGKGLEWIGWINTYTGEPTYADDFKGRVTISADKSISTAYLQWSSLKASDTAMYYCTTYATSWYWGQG
T1 sequence (VH, as listed by the source, chain 1 of 2): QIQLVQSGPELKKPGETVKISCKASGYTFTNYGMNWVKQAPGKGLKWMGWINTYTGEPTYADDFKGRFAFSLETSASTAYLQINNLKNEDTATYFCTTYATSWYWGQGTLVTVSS
T1 sequence (VL, as listed by the source, chain 2 of 2): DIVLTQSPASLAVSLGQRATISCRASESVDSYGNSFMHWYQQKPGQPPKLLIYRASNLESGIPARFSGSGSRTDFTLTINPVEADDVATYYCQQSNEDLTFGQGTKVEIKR
T5 sequence (VH, as listed by the source, chain 1 of 2): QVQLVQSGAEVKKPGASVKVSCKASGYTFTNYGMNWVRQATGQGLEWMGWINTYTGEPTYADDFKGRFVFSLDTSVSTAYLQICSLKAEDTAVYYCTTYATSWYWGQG
T5 sequence (VL, as listed by the source, chain 2 of 2): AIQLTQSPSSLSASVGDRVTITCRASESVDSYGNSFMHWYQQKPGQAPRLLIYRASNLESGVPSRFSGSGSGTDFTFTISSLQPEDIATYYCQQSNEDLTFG
T4 sequence (VL, as listed by the source, chain 2 of 2): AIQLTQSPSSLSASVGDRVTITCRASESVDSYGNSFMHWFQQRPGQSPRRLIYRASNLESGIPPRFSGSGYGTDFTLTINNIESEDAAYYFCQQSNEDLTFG
T6 sequence (VL, as listed by the source, chain 2 of 2): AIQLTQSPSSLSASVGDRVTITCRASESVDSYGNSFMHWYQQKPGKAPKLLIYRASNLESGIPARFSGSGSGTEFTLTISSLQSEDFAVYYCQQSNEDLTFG

- EC50 [1]: 0.0174 µg/mL
- EC50 (BAP070-hum05 [2]): 0.0188 µg/mL
- IC50 (read off the curve) (BAP070-hum06): ~2 ng/well
- IC50 (read off the curve) [3]: ~2 ng/well
- IC50 (read off the curve) (BAP070-hum04): ~2 ng/well
- IC50 (read off the curve) (BAP070-hum03): ~2 ng/well
- IC50 (read off the curve) (BAP070-hum02): ~2 ng/well
- IC50 (read off the curve) (BAP070-hum05 [4]): ~2 ng/well
- IC50 (read off the curve) (BAP070-hum01): ~2 ng/well
B1: Human hepcidin peptide (hepcidin-25) (peptide)
peptide: DTHFPICIFCCGCCHRSKCGMCCKT
notes: Synthetic 25 aa peptide; also called hep-25; Hep-25
